Experimental data reported in US20070048315A1.
Numbering of substitutions follows the chain as printed. Where “and” joins values, the source holds several entries; their conditions need not be identical. Equal values may be shown once. Each block holds one binder with its values, some of them ahead of it.

How the values were obtained:
[1] = molecular target: "Bac-wt" human IL-23 (identical to elastikine human IL-23 in sequence, expressed in SF9 cells) (human) (UniProt P29460); assay: BIAcore SPR, mAb amine-coupled on CM5 chip, IL-23 in solution, 25 C
[2] = molecular target: "N222Q" human IL-23 (elastikine sequence with Asn222 to Gln in the p40 subunit, expressed in SF9 cells) (human) (UniProt P29460); assay: as above

Kd [1]: 10 nM
Kd [2]: 0.3 nM and 1 nM
B1: humanized anti-human IL-23p19 antibody hum7G10 (antibody, human IgG1, kappa, V domains shown)
VH: QVQLVQSGAEVKKPGASVKVSCKASGYTFTSNVMHWVRQAPGQGLEWMGYINPYNDGTKYNEKFKGRVTMTTDTSTSTAYMELRSLRSDDTAVYYCARNWDVAYWGQGTLVTVSS
VL: DIQMTQSPSSLSASVGDRVTITCRASQSISDYLHWYQQKPGKAPKLLIYYASQSISGVPSRFSGSGSGTDFTLTISSLQPEDFATYYCQNGHSFPFTFGQGTKVEIKR

Kd [1]: 5.1 nM
Kd [2]: 0.5 nM
B2: humanized anti-human IL-23p19 antibody hum6H12 (antibody, human IgG1, kappa, V domains shown)
VH: B1 VH with T30N, S31R, N32Y, V33L, M34I, Y54N, D56A, K59N, V102Q
VL: B1 VL with A51T
